The record followed here is PMC6140332.

The target of this data set is T1, ERG (33-479) R367K (UniProt P11308 33-479, R367K).
T1 sequence: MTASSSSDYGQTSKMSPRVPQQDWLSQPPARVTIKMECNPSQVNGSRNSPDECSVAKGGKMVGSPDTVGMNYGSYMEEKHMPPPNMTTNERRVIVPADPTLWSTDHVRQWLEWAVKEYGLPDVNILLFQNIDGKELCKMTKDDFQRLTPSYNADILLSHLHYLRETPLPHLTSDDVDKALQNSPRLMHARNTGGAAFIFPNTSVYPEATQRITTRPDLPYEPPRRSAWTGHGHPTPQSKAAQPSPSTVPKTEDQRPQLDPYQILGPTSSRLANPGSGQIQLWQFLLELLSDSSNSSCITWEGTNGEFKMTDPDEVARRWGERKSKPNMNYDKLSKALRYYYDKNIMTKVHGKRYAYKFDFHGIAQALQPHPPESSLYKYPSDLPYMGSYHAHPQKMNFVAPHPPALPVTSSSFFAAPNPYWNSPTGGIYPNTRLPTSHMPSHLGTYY
The experiment in a line: EMSA. A general note: A gel shift assay detects complexes by their altered migration in electrophoresis.

B1: IRD800-Py (polyomavirus enhancer probe) (dsDNA)
DNA 1: GATCTTTAAGCAGGAAGTGACTAACTGACCGCAGGTGGATC
DNA 2: GATCCACCTGCGGTCAGTTAGTCACTTCCTGCTTAAAGATC
As for B1, the binding result is listed as “no binding”.
